Residue numbers refer to the chain shown, from its start. Values belong to the binder of their own block, whether it stands above or below them.
Assays:
[1] = target: T1, human Tim-3 on cells (Tim-3 DO11.10 cells, a human Tim-3 expressing DO11.10 cell line) (human, UniProt Q8TDQ0 22-301); test: cell-based or functional assay
[2] = target: T2, human Tim-3-Fc (R&D Systems) (human, UniProt Q8TDQ0 22-130, biotinylated in the phosphatidylserine assay; ruthenylated (sulfo-tag NHS-ester) in the galectin-9 assay); test: flow cytometry, blocking of biotinylated hTIM-3-Fc binding to phosphatidylserine on camptothecin-treated DO11.10 cells; blocking of hTIM-3-Fc Biotin binding to phosphatidylserine on camptothecin-treated DO11.10 cells
T2 construct: Bought from R&D Systems; also called hTIM-3-Fc; hTIM-3-Fc Biotin; not shown: Fc part of the bought fusion protein

[3] = target: T2, human Tim-3-Fc (R&D Systems); test: ELISA, plate coated with human Tim-3-Fc
[4] = target: T3, human Tim-3-IgV-Fc single arm antigen (SAG) (human, UniProt Q8TDQ0 22-130); test: SPR, Biacore T100, antibody captured by Human Fab Binder, Tim-3 SAG as analyte, 1:1 Langmuir with mass transport
T3 construct: Single arm format: the second (Fc only) chain is not described; also called Tim-3 SAG; not shown: Fc part

[5] = target: T1, human Tim-3 on cells (Tim-3 DO11.10 …); test: flow cytometry, A488-labelled antibody on Tim-3 DO11.10 cells
[6] = target: T2, human Tim-3-Fc (R&D Systems); test: MSD blocking assay, ruthenylated hTim-3-Fc binding to plate-bound galectin-9-biotin
[7] = target: T4, hTim-3-IgV-FLAG (human, UniProt Q8TDQ0 22-130, density indicating glycosylation at Asn99); test: SPR, Biacore T200, Fab captured, hTim-3-IgV-FLAG as analyte, HBS-EP, 25 C, 1:1 binding
T4 construct: Purified from 293HEK supernatant with anti-FLAG resin; also called hTim-3-FLAG; not shown: FLAG tag

EC50 (nM), IL-2 production of hTim-3 DO11.10 cells with A20 cells and OVA peptide [1]: 3.71 nM | IC50 [2]: 320 pM | EC50 [3]: 20.7 pM | Kd [4]: 398 pM | koff [4]: 0.000927 s⁻¹ | kon [4]: 2.33e+06 M⁻¹ s⁻¹ | EC50 [5]: 90 pM | IC50 [6]: 5600 pM
B1: Antibody A (antibody, human IgG1, kappa, V domains shown)
VH: EVQLLESGGGLVQPGGSLRLSCAASGFTFSSYYMSWVRQAPGKGLEWVSAISGSGGSTYYADSVKGRFTISRDNSKNTLYLQMNSLRAEDTAVYYCARYARTAFDLWGQGTLVTVSS
VL: DIVMTQSPSSLSASVGDGVTITCQASQDIYNYLNWYQQKPGKAPKLLIYAASSLQSGVPSRFSGSGSGTDFTLTISSLQPEDFATYYCQQANSFPPTFGQGTKLEIKR
notes: also called anti-human Tim-3; Antiboby A

EC50 (nM), IL-2 production of hTim-3 DO11.10 cells with A20 cells and OVA peptide [1]: 6.08 nM | Kd [4]: 158 pM | koff [4]: 0.000106 s⁻¹ | kon [4]: 675000 M⁻¹ s⁻¹
B2: Antibody B (antibody, human IgG1, kappa, V domains shown)
VH: B1 VH with T28S, Y32F, M34F, S54N, G56R, A100Y, R101N, A103G
VL: B1 VL with Q27E, D28A, N31G, Q55P, S56I, N92Y, S93G

Kd [7]: 7920 pM | koff [7]: 0.00286 s⁻¹ | kon [7]: 362000 M⁻¹ s⁻¹
B3: Antibody A-Fab (Fab, V domains shown)
VH: B1 VH
VL: B1 VL
notes: Made by clipping Antibody A with immobilized papain; also called Fab for Antibody A

EC50 (nM), IL-2 production of hTim-3 DO11.10 cells with A20 cells and OVA peptide [1]: 3.35 nM | Kd [4]: 173 pM | koff [4]: 0.000138 s⁻¹ | kon [4]: 797000 M⁻¹ s⁻¹
B4: Antibody C (antibody, human IgG1, kappa, V domains shown)
VH: B1 VH with S54N, G56K, A100Y, R101N, A103G
VL: B1 VL with A50Y, L54I, Q55V
